Molecular target: SUMO1 (construct transfected into HSW cells in Example 8) (human) (UniProt P63165)
Assay: cell-based or functional assay

Sequence of UniProt P63165 (P63165 2-97 limits assumed): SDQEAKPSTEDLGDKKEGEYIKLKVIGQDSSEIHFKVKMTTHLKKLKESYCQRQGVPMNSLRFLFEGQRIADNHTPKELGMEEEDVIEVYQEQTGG

For “N-terminal deleted BACE1-CTF (BACE1 C-terminal fragment, residues 456-501) (peptide)”, the Aβ production (secreted Aβ levels by ELISA, HSW cells) was 25 % reduction.
